The text below walks through data of PMC3626604, “The C-Type Lectin of the Aggrecan G3 Domain Activates Complement” (PLoS ONE, 2013).

This assay concerns the target T1, factor H (human (endogenous in normal human serum), UniProt P08603 19-1231).
T1 construct: complement factor H; also called FH
Briefly: ELISA; proteins coated (G3 fragments 5 µg/ml, fibromodulin 2.5 µg/ml); heat-inactivated normal human serum diluted in 50 mM Hepes pH 7.4, 150 mM NaCl, 2 mM CaCl2, 50 µg/ml BSA; 1 h at RT; detected with anti-FH. Conditions: one partner purified.

T1 sequence (P08603 19-1231): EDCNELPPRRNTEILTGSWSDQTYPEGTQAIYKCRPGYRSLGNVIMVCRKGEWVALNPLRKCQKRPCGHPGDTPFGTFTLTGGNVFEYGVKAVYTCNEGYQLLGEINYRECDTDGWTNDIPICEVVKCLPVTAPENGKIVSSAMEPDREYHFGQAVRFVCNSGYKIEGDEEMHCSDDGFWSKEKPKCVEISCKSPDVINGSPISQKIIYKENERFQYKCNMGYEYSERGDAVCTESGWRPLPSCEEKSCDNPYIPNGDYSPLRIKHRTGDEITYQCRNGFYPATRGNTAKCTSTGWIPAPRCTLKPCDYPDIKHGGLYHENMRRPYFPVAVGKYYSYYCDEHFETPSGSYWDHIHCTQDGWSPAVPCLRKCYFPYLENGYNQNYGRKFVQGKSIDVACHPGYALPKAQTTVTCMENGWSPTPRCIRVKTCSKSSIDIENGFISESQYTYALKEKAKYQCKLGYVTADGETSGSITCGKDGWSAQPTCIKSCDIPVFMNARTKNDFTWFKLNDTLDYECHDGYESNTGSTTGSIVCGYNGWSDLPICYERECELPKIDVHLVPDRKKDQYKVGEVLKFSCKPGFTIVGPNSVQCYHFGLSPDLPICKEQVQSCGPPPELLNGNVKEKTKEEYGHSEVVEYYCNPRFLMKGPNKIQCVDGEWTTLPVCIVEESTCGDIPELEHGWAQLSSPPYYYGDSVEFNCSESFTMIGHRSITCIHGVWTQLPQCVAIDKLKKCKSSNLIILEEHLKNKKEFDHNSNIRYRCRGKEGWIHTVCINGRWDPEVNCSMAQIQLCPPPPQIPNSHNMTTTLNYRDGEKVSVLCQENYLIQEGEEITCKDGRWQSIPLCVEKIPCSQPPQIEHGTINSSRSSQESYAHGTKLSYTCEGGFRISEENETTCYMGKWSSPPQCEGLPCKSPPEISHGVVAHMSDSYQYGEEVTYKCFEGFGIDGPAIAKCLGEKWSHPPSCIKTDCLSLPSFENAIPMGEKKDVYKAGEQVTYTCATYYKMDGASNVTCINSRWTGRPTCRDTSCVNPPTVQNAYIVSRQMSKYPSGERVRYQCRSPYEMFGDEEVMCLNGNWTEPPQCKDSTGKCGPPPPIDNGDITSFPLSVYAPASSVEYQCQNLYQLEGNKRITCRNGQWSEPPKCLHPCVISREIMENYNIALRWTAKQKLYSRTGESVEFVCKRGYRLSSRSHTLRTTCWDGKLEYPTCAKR

B1: recombinant bovine fibromodulin (natural protein, UniProt P13605 19-376, looked up)
chain: QYEEDSHWWFQFLRNQQSTYDDPYDPYPYEPYEPYPYGGEEGPAYAYGSPPQPEPRDCPQECDCPPNFPTAMYCDNRNLKYLPFVPSRMKYVYFQNNQISSIQEGVFDNATGLLWIALHGNQITSDKVGKKVFSKLRHLERLYLDHNNLTRIPSPLPRSLRELHLDHNQISRVPNNALEGLENLTALYLHHNEIQEVGSSMKGLRSLILLDLSYNHLRKVPDGLPSALEQLYLEHNNVFSVPDSYFRGSPKLLYVRLSHNSLTNNGLASNTFNSSSLLELDLSYNQLQKIPPVSTNLENLYLQGNRINEFSISSFCTVVDVMNFSKLQVLRLDGNEIKRSAMPADAPLCLRLASLIEI
notes: fibromodulin, bovine; source: recombinant
Regarding B1, the binding result is listed as “binds”.
